Patent publication US7056679 (ANTYRA, dated 2006)

T1: DGI-2 polypeptide (UniProt Q15004 1-111, limits assumed)
T1 construct: Soluble recombinant protein coated at 500 ng/well; vector tag of pIVEX2.3-MCS not described for this construct; also called KIAA0101
T1 sequence (looked up): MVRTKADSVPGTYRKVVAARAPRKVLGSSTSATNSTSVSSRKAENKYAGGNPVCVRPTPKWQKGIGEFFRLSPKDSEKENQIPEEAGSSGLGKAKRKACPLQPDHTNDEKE


What was measured:
Assay in all cases: phage ELISA
[1] = biological target: T2, lactate dehydrogenase (LDH)
T2 construct: Coated at 500 ng/well as non-specific target; also called LDH polypeptide
Summary of the method: (§1)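 Phage from individual clones were bound for 2 h at RT to wells coated with 500 ng DGI-2, LDH (non-specific), anti-E-tag antibody (positive control) or milk (negative control). Bound phage were detected with HRP-anti-M13 and ABTS at A405; positive clones gave ≥2-fold signal over background.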

DGI-2 polypeptide = biological target: T1, DGI-2 polypeptide
Summary of the method: as §1

[2] = biological target: T3, antibody raised against ETAG
T3 construct: Coated at 500 ng/well; also called E-tag antibody
Summary of the method: as §1

Binder	LDH (OD) [1] [OD]	DGI-2 (OD) (DGI-2 polypeptide)	DGI-2/LDH (DGI-2 polypeptide) [ratio]	ETAG (OD) [2] [OD]
DGI-2-40F-4-E62 (peptide) peptide: TCWHRGLNVVRYSVNFGVRDARLTTQGMAWFPPGCGQGCVAAAGAPVPYPDPLEPRP	1	4.6	4.5	14.8
VLQRSLWKDWVDGVMHGGGSRGVAAAGAPVPYPDPLEPRP [DGI-2-20R-3-A7]	0.9	4.8	5.1	13.9
MGVVLECEGGWSIPGQTCYFAAAGAPVPYPDPLEPRP [DGI-2-20R-3-C7]	1	5.1	5.1	18
GGGRESWGGGWFMGWGSGAGAAAGAPVPYPDPLEPRP [DGI-2-20R-3-A6]	1	5.8	5.9	17.7
VHSQGRMWAIPGLRGGTGASAAAGAPVPYPDPLEPRP [DGI-2-20R-3-D7]	1	5.2	5.3	18.7
WAASCFWGHVALGCGRNGQGAAAGAPVPYPDPLEPRP [DGI-2-20R-3-A11]	1.1	6.2	5.7	14.7
DGKHLTKWSGRGWWSAWVGGAAAGAPVPYPDPLEPRP [DGI-2-20R-3-B12]	1	5.7	5.5	15.5
WGCVFRQWASGSGAGCARRHAAAGAPVPYPDPLEPRP [DGI-2-20R-3-D9]	1	6.7	6.4	19.7
DGI-2-40F-3-C8 (peptide) peptide: YGTAGLFLRRACTMSDPGDPLGRRGYTGWGVLWDEWVTGSAAAGAPVPYPDPLEPRP	0.9	5.7	6	13.6
YTPASILTGFQRGYEGAGNGAAAGAPVPYPDPLEPRP [DGI-2-20R-4-G7]	1.2	4.7	3.9	11.6
VVRQGCMAFSGLCSGVTESEAAAGAPVPYPDPLEPRP [DGI-2-20R-3-C8]	1.1	5.6	5.3	21.1
SWACGLLWPGECGSQVARRGAAAGAPVPYPDPLEPRP [DGI-2-20R-3-D127]	1	6.7	6.4	15.4
RRILPWSFPGCGRMCAAAGAPVPYPDPLEPRP [DGJ-2-20R-3-A10]	1.1	6.2	5.9	16.4
DGI-2-40F-3-C424 (peptide) peptide: TVKFQGVVQERSRIAGFRYCGDHAVSWGLAGCPALRDKLQAAAGAPVPYPDPLEPRP	1.1	5.5	5.2	14.8
RPVVCLAGLTLAQFGWVFPGWRGWSAAAGAPVPYPDPLEPRP [DGI-2-20C-3-C1039]	1	4.7	4.7	11.8
SLECWAMPGMVVRLVGCDGPAAAGAPVPYPDPLEPRP [DGI-2-20R-4-H112]	1.1	6.6	6	12.3
RDTTSQWSWISRGWEFPGWRAAAGAPVPYPDPLEPRP [DGI-2-20R-3-C2]	1.1	6.2	5.8	11.9
RERWGTAWNLWTEGVVDVRPAAAGAPVPYPDPLEPRP [DGI-2-20F-3-B5]	0.9	6.1	6.6	16.4
DGI-2-40F-4-F122 (peptide) peptide: RSQVRVVSRERSTPVLHRIECLLFSGWCVTSGSDEGVVWGAAAGAPVPYPDPLEPRP	0.8	4.7	5.7	8.1
MFQDVACDLWHSVRCLRRDVAAAGAPVPYPDPLEPRP [DGI-2-20R-3-B3]	1	4.9	4.8	16.1
WWERFVWGRPVDDGVVVMATAAAGAPVPYPDPLEPRP [DGI-2-20R-3-B1]	1	6.3	6.2	14.5
GWGCSVPGILCVGGHRQGGGAAAGAPVPYPDPLEPRP [DGI-2-20R-3-B11]	1	5.9	5.7	16.9
LPQSRWLSEAWASWVDGVVDAAAGAPVPYPDPLEPRP [DGI-2-20F-4-F9]	1	5.6	5.9	19.6
